Measured values as given in patent US20200392227A1 (LYVGEN BIOPHARMA, published 2020).
Like-named read-outs stand apart in the source and are kept apart here.

T1: human FcRIIA protein (MednaBio, E1033) (human, UniProt P12318 34-218, limits assumed)
T1 construct: Bought; also called FcγRIIA
T1 sequence (looked up): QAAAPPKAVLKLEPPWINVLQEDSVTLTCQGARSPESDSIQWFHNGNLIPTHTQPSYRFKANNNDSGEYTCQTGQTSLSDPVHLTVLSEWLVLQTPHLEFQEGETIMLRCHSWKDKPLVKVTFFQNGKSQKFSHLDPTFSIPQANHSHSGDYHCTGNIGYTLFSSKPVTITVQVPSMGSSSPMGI

T2: human FcRIIB/C protein (MednaBio, E1034) (human, UniProt P31994 43-217, limits assumed)
T2 construct: Bought as FcRIIB/C; also called FcγRIIB; CD32B
T2 sequence (looked up): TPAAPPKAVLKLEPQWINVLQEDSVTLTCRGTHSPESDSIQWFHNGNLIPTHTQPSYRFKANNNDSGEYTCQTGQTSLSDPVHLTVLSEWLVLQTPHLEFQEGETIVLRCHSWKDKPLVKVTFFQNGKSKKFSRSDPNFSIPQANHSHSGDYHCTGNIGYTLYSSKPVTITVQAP

T3: human FcγRIIA(R131) expressed on CHO cells (human, UniProt P12318 34-317)
T3 construct: whole, on cells
T3 sequence (looked up): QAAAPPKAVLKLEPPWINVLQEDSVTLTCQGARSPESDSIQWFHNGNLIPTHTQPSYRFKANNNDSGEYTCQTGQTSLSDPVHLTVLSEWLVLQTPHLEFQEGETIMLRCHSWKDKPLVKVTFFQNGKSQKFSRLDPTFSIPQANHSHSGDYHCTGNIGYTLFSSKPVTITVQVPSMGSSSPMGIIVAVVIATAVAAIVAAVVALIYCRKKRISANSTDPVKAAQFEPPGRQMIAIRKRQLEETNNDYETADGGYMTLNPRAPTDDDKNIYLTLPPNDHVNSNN


How the values were obtained:
[1] = biological target: T4, human FcRIIIB protein (MednaBio, E1037) (human, UniProt O75015 17-200); test: BLI
T4 construct: Bought; also called FcγRIIIB; FcgRIIIB
T4 sequence (O75015 17-200 limits assumed): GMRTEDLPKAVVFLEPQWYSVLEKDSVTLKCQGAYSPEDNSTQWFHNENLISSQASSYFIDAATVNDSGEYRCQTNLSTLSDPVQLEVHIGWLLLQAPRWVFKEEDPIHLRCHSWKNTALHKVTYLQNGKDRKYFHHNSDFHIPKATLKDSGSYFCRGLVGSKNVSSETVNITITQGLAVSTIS
In short: (§1)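 Binding was measured by biolayer interferometry on an Octet Red96 System. Commercial human Fc receptor proteins were loaded at 20 μg/mL onto anti-penta-HIS biosensors, which were then dipped into an 8-point 1:3 dilution series of test IgG starting at 300 nM in PBS with 0.1% BSA and 0.02% Tween-20, at pH 7.2 for Fcγ receptors and pH 6 for FcRn. Kd, kon and koff were obtained by global fitting, with data fitted to a 1:1 binding model.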

[2] = biological target: T5, human FcRI protein (MednaBio, E1031) (human, UniProt P12314 16-288, limits assumed); test: BLI
T5 construct: Bought; loaded on anti-penta-HIS biosensors; also called FcγRI
T5 sequence (P12314 16-288 limits assumed): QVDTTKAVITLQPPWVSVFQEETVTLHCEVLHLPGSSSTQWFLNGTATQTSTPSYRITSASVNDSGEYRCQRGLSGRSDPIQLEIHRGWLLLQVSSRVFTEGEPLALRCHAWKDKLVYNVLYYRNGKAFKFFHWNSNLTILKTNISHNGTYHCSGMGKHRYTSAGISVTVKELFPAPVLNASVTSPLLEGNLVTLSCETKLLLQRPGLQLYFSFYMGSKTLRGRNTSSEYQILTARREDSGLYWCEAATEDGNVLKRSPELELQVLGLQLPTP
In short: as §1

[3] = biological target: T1, human FcRIIA protein (MednaBio, E1033); test: BLI
In short: as §1

[4] = biological target: T2, human FcRIIB/C protein (MednaBio, E1034); test: BLI
In short: as §1

[5] = biological target: T6, human FcRIIIA-V158 protein (MednaBio, E1035) (human, UniProt P08637 17-208); test: BLI
T6 construct: Bought; also called FcγRIIIA(V); FcgRIIIA(V)
T6 sequence (P08637 17-208 F176V): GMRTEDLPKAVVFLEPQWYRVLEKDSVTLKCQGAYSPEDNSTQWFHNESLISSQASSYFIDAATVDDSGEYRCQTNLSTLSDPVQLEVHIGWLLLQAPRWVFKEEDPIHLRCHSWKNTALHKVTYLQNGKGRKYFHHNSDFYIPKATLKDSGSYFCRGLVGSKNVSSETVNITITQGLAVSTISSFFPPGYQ
In short: as §1

[6] = biological target: T7, human FcRIIIA-F158 protein (MednaBio, E1036) (human, UniProt P08637 17-208); test: BLI
T7 construct: Bought; also called FcγRIIIA(F)
T7 sequence (P08637 17-208 limits assumed): as the sequence (P08637 17-208 F176V) above, with V160F counted along it
In short: as §1

[7] = biological target: T8, human FcRn protein (MednaBio, E1032) (human, UniProt P55899 24-297; P61769 21-119); test: BLI
T8 construct: Bought; assays at pH 6
In short: as §1

[8] = biological target: T3, human FcγRIIA(R131) expressed on CHO …; test: FACS, CHO cells expressing FcγRIIA(R131)
Protocol: For FACS analysis of the IgG mutants' binding to different FcγRs, FcγR overexpressing CHO cells were harvested using trypsin-EDTA and were suspended in cold staining buffer (3% BSA in PBS). Test IgG mutants, which were diluted in staining buffer, were added into the cells. The mixture was incubated 4° C. for 2 hours, and then washed twice with cold staining buffer and re-suspended in PE-labeled anti-human IgG followed by incubation at 4° C. for 2 hours. The mixture was washed twice with staining buffer and re-suspended in 2% PFA in PBS for FACS.

[9] = biological target: T4, human FcRIIIB protein (MednaBio, E1037); test: BLI; remark: listed apart in the source
In short: as §1

[10] = biological target: T5, human FcRI protein (MednaBio, E1031); test: BLI; remark: listed apart in the source
In short: as §1

[11] = biological target: T1, human FcRIIA protein (MednaBio, E1033); test: BLI; remark: listed apart in the source
In short: as §1

[12] = biological target: T2, human FcRIIB/C protein (MednaBio, E1034); test: BLI; remark: listed apart in the source
In short: as §1

[13] = biological target: T6, human FcRIIIA-V158 protein (MednaBio, …); test: BLI; remark: listed apart in the source
In short: as §1

[14] = biological target: T7, human FcRIIIA-F158 protein (MednaBio, …); test: BLI; remark: listed apart in the source
In short: as §1

[15] = biological target: T8, human FcRn protein (MednaBio, E1032); test: BLI; remark: listed apart in the source
In short: as §1

binding result [9] | Kd [11] | koff [11] | kon [11] | Kd [12] | koff [12] | kon [12] | Kd [13] | koff [13] | kon [13] | Kd [14] | koff [14] | kon [14] | Kd [15] | koff [15] | kon [15] | Kd [10] | koff [10] | kon [10] | Binder | also measured
 |  |  |  |  |  |  |  |  |  |  |  |  |  |  |  |  |  |  | anti-CD137 IgG2 with Fc variant G2m5 (antibody, copies: 2 + 2) heavy: EVQLVQSGAEVKKPGESLRISCKGSGYSFSTYWISWVRQMPGKGLEWMGKIYPGDSYTNYSPSFQGQVTISADKSISTAYLQWSSLKASDTAMYYCARGYGIFDYWGQGTLVTVSSASTKGPSVFPLAPCSRSTSESTAALGCLVKDYFPEPVTVSWNSGALTSGVHTFPAVLQSSGLYSLSSVVTVPSSNFGTQTYTCNVDHKPSNTKVDKTVERKCCVECPPCPAPPVAGPSVFLFPPKPKDTLMISRTPEVTCVVVDVSHEDPEEQFNWYVDGVEVHNAKTKPREEQFNSTFRVVSVLTVVHQDWLNGKEYKCKVSNKGLPAPIEKTISKTKGQPREPQVYTLPPSREEMTKNQVSLTCLVKGFYPSDIAVEWESNGQPENNYKTTPPMLDSDGSFFLYSKLTVDKSRWQQGNVFSCSVMHEALHNHYTQKSLSLSPGK light: SYELTQPPSVSVSPGQTASITCSGDNIGDQYAHWYQQKPGQSPVLVIYQDKNRPSGIPERFSGSNSGNTATLTISGTQAMDEADYYCATYTGFGSLAVFGGGTKLTVLGQPKAAPSVTLFPPSSEELQANKATLVCLISDFYPGAVTVAWKADSSPVKAGVETTTPSKQSNNKYAASSYLSLTPEQWKSHRSYSCQVTHEGSTVEKTVAPTECS | binding result [1]: no binding (tested: 300 nM); binding result [2]: no binding (tested: 300 nM); Kd [3]: 230 nM; koff [3]: 0.14 s⁻¹; kon [3]: 600000 M⁻¹ s⁻¹; Kd [4]: 310 nM; koff [4]: 0.12 s⁻¹; kon [4]: 390000 M⁻¹ s⁻¹; binding result [5]: no binding (tested: 300 nM); binding result [6]: no binding (tested: 300 nM); Kd [7]: 14 nM; koff [7]: 0.011 s⁻¹; kon [7]: 800000 M⁻¹ s⁻¹; binding result [8]: no binding (tested: 10 ug/ml)
no binding (tested: 300 nM) | 829 nM | 0.0165 s⁻¹ | 19900 M⁻¹ s⁻¹ | 517 nM | 0.0915 s⁻¹ | 176000 M⁻¹ s⁻¹ | 1260 nM | 0.0149 s⁻¹ | 11800 M⁻¹ s⁻¹ | 917 nM | 0.013 s⁻¹ | 14300 M⁻¹ s⁻¹ | 57.6 nM | 0.0122 s⁻¹ | 212000 M⁻¹ s⁻¹ |  |  |  | anti-CD137 IgG2 with Fc variant G2m20 (antibody, copies: 2 + 2) heavy: EVQLVQSGAEVKKPGESLRISCKGSGYSFSTYWISWVRQMPGKGLEWMGKIYPGDSYTNYSPSFQGQVTISADKSISTAYLQWSSLKASDTAMYYCARGYGIFDYWGQGTLVTVSSASTKGPSVFPLAPCSRSTSESTAALGCLVKDYFPEPVTVSWNSGALTSGVHTFPAVLQSSGLYSLSSVVTVPSSNFGTQTYTCNVDHKPSNTKVDKTVERKCCVECPPCPAPPVAPSVFLFPPKPKDTLMISRTPEVTCVVVDVSHEDPEVQFNWYVDGVEVHNAKTKPREEQFNSTFRVVSVLTVVHQDWLNGKEYKCKVSNKGLPAPIEKTISKTKGQPREPQVYTLPPSREEMTKNQVSLTCLVKGFYPSDIAVEWESNGQPENNYKTTPPMLDSDGSFFLYSKLTVDKSRWQQGNVFSCSVMHEALHNHYTQKSLSLSPGK light: SYELTQPPSVSVSPGQTASITCSGDNIGDQYAHWYQQKPGQSPVLVIYQDKNRPSGIPERFSGSNSGNTATLTISGTQAMDEADYYCATYTGFGSLAVFGGGTKLTVLGQPKAAPSVTLFPPSSEELQANKATLVCLISDFYPGAVTVAWKADSSPVKAGVETTTPSKQSNNKYAASSYLSLTPEQWKSHRSYSCQVTHEGSTVEKTVAPTECS | binding result [10]: no binding (tested: 300 nM)
 | 422 nM | 0.274 s⁻¹ | 648000 M⁻¹ s⁻¹ | 236 nM | 0.0848 s⁻¹ | 361000 M⁻¹ s⁻¹ | 153 nM | 0.205 s⁻¹ | 1.34e+06 M⁻¹ s⁻¹ | 168 nM | 0.262 s⁻¹ | 1.56e+06 M⁻¹ s⁻¹ | 7.46 nM | 0.0139 s⁻¹ | 1.87e+06 M⁻¹ s⁻¹ | 253 nM | 0.277 s⁻¹ | 1.09e+06 M⁻¹ s⁻¹ | anti-CD137 IgG2 with Fc variant G2m17 (antibody, copies: 2 + 2) heavy: EVQLVQSGAEVKKPGESLRISCKGSGYSFSTYWISWVRQMPGKGLEWMGKIYPGDSYTNYSPSFQGQVTISADKSISTAYLQWSSLKASDTAMYYCARGYGIFDYWGQGTLVTVSSASTKGPSVFPLAPCSRSTSESTAALGCLVKDYFPEPVTVSWNSGALTSGVHTFPAVLQSSGLYSLSSVVTVPSSNFGTQTYTCNVDHKPSNTKVDKTVERKCCVECPPCPAPPVASVFLFPPKPKDTLMISRTPEVTCVVVDVEHEDPEVQFNWYVDGVEVHNAKTKPREEQFNSTFRVVSVLTVVHQDWLNGKEYKCKVSNKGLPAPIEKTISKTKGQPREPQVYTLPPSREEMTKNQVSLTCLVKGFYPSDIAVEWESNGQPENNYKTTPPMLDSDGSFFLYSKLTVDKSRWQQGNVFSCSVMHEALHNHYTQKSLSLSPGK light: SYELTQPPSVSVSPGQTASITCSGDNIGDQYAHWYQQKPGQSPVLVIYQDKNRPSGIPERFSGSNSGNTATLTISGTQAMDEADYYCATYTGFGSLAVFGGGTKLTVLGQPKAAPSVTLFPPSSEELQANKATLVCLISDFYPGAVTVAWKADSSPVKAGVETTTPSKQSNNKYAASSYLSLTPEQWKSHRSYSCQVTHEGSTVEKTVAPTECS | Kd [9]: 117 nM; koff [9]: 0.204 s⁻¹; kon [9]: 1.74e+06 M⁻¹ s⁻¹
no binding (tested: 300 nM) | 191 nM | 0.0898 s⁻¹ | 470000 M⁻¹ s⁻¹ | 256 nM | 0.0464 s⁻¹ | 181000 M⁻¹ s⁻¹ |  |  |  | 527 nM | 0.257 s⁻¹ | 487000 M⁻¹ s⁻¹ | 26.4 nM | 0.0195 s⁻¹ | 737000 M⁻¹ s⁻¹ | 66.1 nM | 0.098 s⁻¹ | 1.49e+06 M⁻¹ s⁻¹ | anti-CD137 IgG2 with Fc variant G2m28 (antibody, also called Gbn28; copies: 2 + 2) heavy: EVQLVQSGAEVKKPGESLRISCKGSGYSFSTYWISWVRQMPGKGLEWMGKIYPGDSYTNYSPSFQGQVTISADKSISTAYLQWSSLKASDTAMYYCARGYGIFDYWGQGTLVTVSSASTKGPSVFPLAPCSRSTSESTAALGCLVKDYFPEPVTVSWNSGALTSGVHTFPAVLQSSGLYSLSSVVTVPSSNFGTQTYTCNVDHKPSNTKVDKTVERKCCVECPPCPAPPVAPSVFLFPPKPKDTLMISRTPEVTCVVVDVEHEDPEVQFNWYVDGVEVHNAKTKPREEQFNSTFRVVSVLTVVHQDWLNGKEYKCKVSNKGLPAPIEKTISKTKGQPREPQVYTLPPSREEMTKNQVSLTCLVKGFYPSDIAVEWESNGQPENNYKTTPPMLDSDGSFFLYSKLTVDKSRWQQGNVFSCSVMHEALHNHYTQKSLSLSPGK light: SYELTQPPSVSVSPGQTASITCSGDNIGDQYAHWYQQKPGQSPVLVIYQDKNRPSGIPERFSGSNSGNTATLTISGTQAMDEADYYCATYTGFGSLAVFGGGTKLTVLGQPKAAPSVTLFPPSSEELQANKATLVCLISDFYPGAVTVAWKADSSPVKAGVETTTPSKQSNNKYAASSYLSLTPEQWKSHRSYSCQVTHEGSTVEKTVAPTECS | binding result [13]: no binding (tested: 300 nM)
